The values that follow come from patent US12194057B2, “NXTAR-derived oligonucleotides and uses thereof” (Washington University, priority 2020, dated 2025).

One data set concerns the target T1, EZH2 (Homo sapiens, UniProt Q15910).
T1 construct: endogenous in cells; host or cells: VCaP cells (some retrovirally infected to over-express NXTAR lncRNA)
The experiment in a line: Pull-down from VCaP cell lysates with biotinylated oligos, immunoblotting for EZH2. Format: binding. The settings on record: VCaP cells with retroviral expression of NXTAR. As for the experimental part:
The biotinylated oligonucleotides were incubated with lysates (2 h), and the lysates were incubated with streptavidin magnetic beads overnight. Beads attached to RNAs were divided equally and processed for either RNA isolation or western blotting. For RNA isolation, beads were washed three times and then separated using proteinase K treatment. RNA was then isolated and purified, and DNA was digested in the process. The real-time quantitative RT-PCR was performed on isolated RNA to check the efficiency of pull-down of NXTAR RNA. The remaining beads were heated at 80° C. for 5 min in loading buffer, followed by western blotting. The blots were probed with EZH2 (CST, 5246S; RRID:AB_10694683) antibody and Actin (SCBT, sc-47778; RRID:AB_2714189) was used as the loading control.
Biotin-labeled NXTAR-N5 (complementary to the AR promoter) and globin oligos were synthesized (IDT) (see e.g., TABLE 1). ChIRP was performed using lysate from formaldehyde-fixed VCaP cells and oligos that were immobilized to streptavidin beads, as described earlier (see e.g., Chu and Chang (2016) Methods Mol Bio). The amount of the chromatin DNA was determined by real-time PCR. For detection of NXTAR-N5/EZH2 binding, biotin-labeled NXTAR-N5 oligo and control globin oligo were incubated with VCaP cell lysates and were subjected to chromatin pull-down, followed by immunoblotting with EZH2 antibodies.
(Immunoblotting shows a protein as a band on a membrane.)

The test system of a further data set is AR promoter. The experiment in a line: ChIP-qPCR (EZH2, H3K27me3) at AR promoter. Format: cell-based, human. The protocol: Chromatin immunoprecipitation (ChIP), quantitative RT-PCR, and ChIP-qPCR were performed as described earlier (see e.g., Mahajan et al. (2017) Cancer Cell; Mahajan et al. (2012) J Biol Chem; and Mahajan et al. (2012) Nat Struct Mol Bio). Briefly, cells were either transfected, infected or treated with various inhibitors (R)-9b; CPTH2 (Sigma, Cat #C9873)], fixed in formaldehyde, lysed and ChIP was performed with antibodies recognizing AR (SCBT, sc-7305; RRID:AB_626671), GCN5 (SCBT, SC-365321; RRID:AB_10846182), H3K14ac (CST, 7627S; RRID:AB_10839410), H3K27me3 (CST, 9733S; RRID:AB 2616029), NCOR1 (Bethyl Laboratories, Cat #A301-145A; RRID:AB_873085), EZH2 (CST, 5246S; RRID:AB_10694683), or IgG (Abcam, ab2410; RRID:AB_303052), immobilized on Protein A magnetic beads (Biorad, Cat #161-4013). The complexes were washed with ChIP buffers, eluted with elution buffer (Active Motif, Cat #53008), and subjected to reverse crosslinking, followed by RNase and proteinase K treatments. A part of soluble chromatin was processed separately at the same time and designated as input DNA. Treated ChIP DNA and input DNAs were purified using PCR-DNA purification columns (Qiagen, Cat #28106). The amount of immunoprecipitated DNA was determined by real-time PCR.

Another data set has as its system AR. The experiment in a line: Immunoblotting of AR protein in prostate cancer cells. Format: cell-based, human. As for the experimental part: Cells were harvested, lysed by sonication in receptor lysis buffer (see e.g., Mahajan et al. (2010) PLoS One) and 20-50 μg of protein lysates were fractionated by SDS-PAGE, and transferred onto a PVDF membrane (Immobilon, Cat #IPVH00010). After blocking in 5% nonfat dry milk (RPI, Cat #M17200) (or 3% BSA, Goldbio, Cat #A-420-500), membranes were incubated with the following monoclonal antibodies: AR (SCBT, Cat #sc-7305; RRID:AB 626671), pY276-AR (29), ACK1 (SCBT, sc-28336; RRID:AB 626629), pACK1 (Upstate, 09-142; RRID:AB 612088), EZH2, and Actin. The signals were visualized by using the enhanced chemiluminescence (ECL; Pierce, 32106) system.

The test system of another data set is AR-V7. The experiment in a line: qRT-PCR of AR-V7 expression in prostate cancer cells. Format: cell-based, human. Particulars: 22Rv1 cells, reintroduction of NXTAR. The protocol: NXTAR-N5 oligonucleotide was synthesized by IDT, and the oligonucleotide sequence is provided in TABLE 1 and FIG. 7C (* represents phosphorothioate bond modifications to avoid degradation by exonucleases). Equal numbers of VCaP and 22Rv1 cells were transfected with NXTAR-N5 or globin-derived oligonucleotide using X-tremeGENE360 (Sigma-Aldrich, Cat #08724121001), and the number of live cells was counted 96 h post-transfection using trypan blue exclusion method (Sigma, Cat #T8154). RNA was prepared from these cells, and qRT-PCR [SYBR PremixEx Taq II (Tli RNase H Plus)ROX, Clontech Takara, Cat #RR82LR] for AR and AR-V7 was performed as described earlier (see e.g., Mahajan et al. (2017) Cancer Cell).
Cells were transfected, infected or treated [(R)-9b; EPZ6438, TargetMol, Cat #T1788] accordingly. RNA was used for cDNA preparation using High-Capacity cDNA Reverse Transcription Kit (Thermo Scientific Cat #4368814). Resulting cDNA was then analyzed by qPCR using an Applied Biosystems 7900 Real-Time PCR System (Thermo Scientific) and SYBR Green PCR Master Mix [SYBR PremixEx Taq II (Tli RNase H Plus) ROX, Clontech Takara, Cat #RR82LR] according to the manufacturers' instructions. Dissociation curves were generated for each plate to verify the integrity of the primers. The relative expression of RNAs was calculated using the comparative Ct or standard curve method. […]
For orientation: Real-time PCR tracks product formation cycle by cycle.

T1 sequence (Q15910 whole entry): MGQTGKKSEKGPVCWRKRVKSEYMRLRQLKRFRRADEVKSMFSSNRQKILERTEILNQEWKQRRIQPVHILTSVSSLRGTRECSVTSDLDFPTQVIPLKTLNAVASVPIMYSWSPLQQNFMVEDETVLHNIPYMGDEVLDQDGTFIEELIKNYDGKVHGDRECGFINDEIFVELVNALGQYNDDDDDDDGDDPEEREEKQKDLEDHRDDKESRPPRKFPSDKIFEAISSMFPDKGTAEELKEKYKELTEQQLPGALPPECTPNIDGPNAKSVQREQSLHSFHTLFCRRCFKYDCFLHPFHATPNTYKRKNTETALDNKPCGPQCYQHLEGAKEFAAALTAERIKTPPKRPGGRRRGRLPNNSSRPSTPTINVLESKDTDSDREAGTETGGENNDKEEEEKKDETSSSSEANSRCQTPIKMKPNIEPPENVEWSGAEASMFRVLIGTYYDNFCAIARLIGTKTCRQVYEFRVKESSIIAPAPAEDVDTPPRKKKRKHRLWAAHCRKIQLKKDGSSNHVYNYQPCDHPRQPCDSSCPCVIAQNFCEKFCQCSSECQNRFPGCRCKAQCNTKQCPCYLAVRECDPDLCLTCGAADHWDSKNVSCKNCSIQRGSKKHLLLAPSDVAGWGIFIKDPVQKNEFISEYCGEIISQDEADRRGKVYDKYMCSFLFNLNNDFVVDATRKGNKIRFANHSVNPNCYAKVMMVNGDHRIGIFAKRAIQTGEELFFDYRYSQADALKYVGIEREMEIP
T1 sequence (O75530 whole entry partner): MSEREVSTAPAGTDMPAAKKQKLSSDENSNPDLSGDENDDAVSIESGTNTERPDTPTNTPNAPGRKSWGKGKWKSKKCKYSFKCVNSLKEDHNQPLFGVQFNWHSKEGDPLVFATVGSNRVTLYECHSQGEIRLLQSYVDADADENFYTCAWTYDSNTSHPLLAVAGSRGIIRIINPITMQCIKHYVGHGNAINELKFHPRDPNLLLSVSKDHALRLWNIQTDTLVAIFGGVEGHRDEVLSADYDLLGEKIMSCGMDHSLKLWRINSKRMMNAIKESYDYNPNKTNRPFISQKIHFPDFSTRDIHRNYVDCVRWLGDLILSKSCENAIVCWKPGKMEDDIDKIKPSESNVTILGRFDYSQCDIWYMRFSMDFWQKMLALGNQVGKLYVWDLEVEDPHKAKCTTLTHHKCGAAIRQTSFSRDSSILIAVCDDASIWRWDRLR
T1 sequence (Q15022 whole entry partner): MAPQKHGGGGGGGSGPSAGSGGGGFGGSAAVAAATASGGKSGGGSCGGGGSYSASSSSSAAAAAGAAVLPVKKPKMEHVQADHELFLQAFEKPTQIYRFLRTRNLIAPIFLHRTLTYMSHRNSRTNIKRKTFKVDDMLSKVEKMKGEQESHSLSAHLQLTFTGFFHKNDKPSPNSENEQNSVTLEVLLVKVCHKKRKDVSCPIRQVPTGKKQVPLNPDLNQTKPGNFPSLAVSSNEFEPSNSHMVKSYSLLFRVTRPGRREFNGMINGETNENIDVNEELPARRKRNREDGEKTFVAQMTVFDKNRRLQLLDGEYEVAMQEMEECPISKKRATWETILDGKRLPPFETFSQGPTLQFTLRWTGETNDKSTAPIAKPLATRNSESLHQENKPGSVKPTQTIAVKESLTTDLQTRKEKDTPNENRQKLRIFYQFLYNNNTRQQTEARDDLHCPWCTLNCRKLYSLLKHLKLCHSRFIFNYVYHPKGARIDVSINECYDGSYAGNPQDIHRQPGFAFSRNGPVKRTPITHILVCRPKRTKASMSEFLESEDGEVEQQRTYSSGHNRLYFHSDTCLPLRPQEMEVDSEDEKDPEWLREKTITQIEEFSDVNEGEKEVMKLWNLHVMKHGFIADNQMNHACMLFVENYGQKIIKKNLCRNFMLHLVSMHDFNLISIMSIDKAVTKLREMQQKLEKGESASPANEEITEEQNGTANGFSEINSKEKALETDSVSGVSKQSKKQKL
T1 sequence (Q09028 whole entry partner): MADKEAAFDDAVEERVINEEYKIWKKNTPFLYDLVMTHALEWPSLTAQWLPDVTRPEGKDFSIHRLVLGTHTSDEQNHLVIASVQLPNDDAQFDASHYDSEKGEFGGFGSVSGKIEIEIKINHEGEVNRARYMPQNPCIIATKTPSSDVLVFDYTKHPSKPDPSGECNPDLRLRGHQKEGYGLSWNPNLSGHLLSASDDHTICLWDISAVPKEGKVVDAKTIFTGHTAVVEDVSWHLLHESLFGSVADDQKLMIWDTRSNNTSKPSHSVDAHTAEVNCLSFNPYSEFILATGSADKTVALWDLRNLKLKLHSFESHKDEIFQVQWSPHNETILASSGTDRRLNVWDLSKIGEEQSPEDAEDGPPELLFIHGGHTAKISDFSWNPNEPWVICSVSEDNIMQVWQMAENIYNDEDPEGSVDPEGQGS

B1: NXTAR: long non-coding RNA, 1476-nt transcript (SEQ ID NO: 58), expressed from retroviral or plasmid constructs (nucleic acid, listed as Homo sapiens)
chain: GGAAAAGGAAGGCTGCACAGAAGAACTGGCATTTGTGTTCTGCCTACAAAGCTGAAAAGGATTTCACCCAAATCAGGGAAGATCAGCCTTATGAGGTGGATATTATTGCCACAATAATTTTCCAGATGAAAAATGGAGGCCCAGAGATGTTAAGGAATTTGCCCAAGATCATGAAAAGACACTCTCCCCTATTGAGATGTCATGCAAGGATCAGTGCTGTGTGAAAATCCACATGAAGCAGGAAATGCAGGTGGTGGTGTCCAATCTGATTTCAAGATCTGAGAAGCTGTGCACTGCCTGAAAGGTATCTATTTAAGGTGTCACCAGACTCCTGCTCCACTCCTGCCCAAGGCCCAGCCCATCCAAGAGCAAAAGGCAAGTGGTGTTACAACCTTGGGATTTCCTGTATCTGCCCTCTTGCGGATAGCAGGACAGAGTCACAGCTGCATTAAATTCGCTTAAGACTTATTGAGACACTTCAACACTTCAACAACGACCTGTGAGATTAAGATTATTATTTTAAATTTACAGAAGGGGAAACTAAGAATTATAGACATGAAGTGACTCACCTATGACCACCTGGTGATAGAACCAGGACTAGAGCTCAGGTATGAAGATTTCTGGGGGAGTCCCTGAAAAAAAGGCTCCATATGGAATTACAATGTGGAAAAGGCCAAGGCCTCACCAACCCTTTTCTCTTCAACACCTGGATCCCTAAGTCCTTATTCGTAACCTCCTCTTTGGACAAGGTTTTGGTAGACAAAGCCAGAGCCTCTTGCACTGAGAAAGACAAATTCTCCTCTTGCAGTGAACCACAGGTAAATGCTCCAATAGAGAGTCCAAGCCAAACCTCCGGGTGTTATTCATGACCCAGGCAAGTCTGCTTTCTCATTCCCCCTATCTCTAGACCGTTTTCCATTTGGGCTTCCTTTTCTTCTTTTATCCTCAAAGAAACATGTTTCCTTCTAGTAGGTTTGGCTGCCACCACTAGGGTCCTGGCTACAACTGGCCCTCAGGTAACTCTCTCACCTCTGAGTTGGATAGTATCCTCTCTCGTCCCCATACACAAGTGTTTCTCTTCCCAGACACCTTCCTTACACAATTTCCCATTTCTTTCTCATCTCACCCTTGCTTTAATCAACATAGTTCTTTCCCCTGAGATTACTCTTCAGCCTTTCTTGTTGAAGCACTGCCCAGTGGTTCTCTTGGGATTTCCATTTCTCTCCCCTCAGCTCTCTTGGTACCAAATTCTGTAAGCTTCTCTGGTTTTTGGTTTCTCTTCCTTCTTTTCCTTCCAGGCAACATTTACTCAATCTAGGCTTGGATGATCAGGTACTTCTGCCAGCCTGCCCACTAGGGAACTCTGGGCTAGGAATATGTCTCAATGGCACCATTATATTTGGAAGGACGCTTCTGTATTTACACTGAACACACTAAAATACTAAACTTGAAGCCAAAATCCCCTCTCTGGCTCCA
On to B1, for which, in the data set with EZH2, the “EZH2 binding in RNA pull-down” value was “EZH2 could bind to NXTAR RNA”. Also, in the data set on AR promoter (LNCaP cells overexpressing NXTAR), the “EZH2 binding at the AR promoter” value is on record as “significant binding”. In addition, the “deposition of H3K27me3 marks in the AR promoter” value in the data set with AR promoter (LNCaP, 22Rv1 and VCaP cells, NXTAR restoration) was “significant increase in deposition of H3K27me3 marks”. Further, the AR protein entry is on record as “dose-dependent downregulation of AR” with AR (22Rv1 cells, NXTAR construct 0.25-2 μg, 48 hrs); “decreased upon NXTAR expression in a time-dependent manner” in the data set with AR (LNCaP and 22Rv1 cells, NXTAR plasmid 24, 48 and 72 hrs). Besides, the “AR expression (protein)” value with AR (VCaP and 22Rv1 cells, NXTAR expression) was “loss of AR expression”. In the data set on AR-V7, the AR-V7 expression entry was “significantly compromised”.
